Test results reported in publication PMC5571166, “Mapping the key residues of SufB and SufD essential for biosynthesis of iron-sulfur clusters” (Scientific Reports, 2017).

Legend:
Assay in all cases: SEC; SufBCD complexes co-expressed in E. coli and co-purified on Phenyl FF, Q XL and Sephacryl S-200; eluted from gel filtration at about 160 kDa; subunit composition checked by SDS-PAGE of the purified sample
Conditions in all cases: both partners purified
[1] = target: T1, SufB^K303A (Escherichia coli, UniProt P77522 1-495, SufB^K303A)
T1 construct: SufB of the Escherichia coli sufABCDSE operon
T1 sequence: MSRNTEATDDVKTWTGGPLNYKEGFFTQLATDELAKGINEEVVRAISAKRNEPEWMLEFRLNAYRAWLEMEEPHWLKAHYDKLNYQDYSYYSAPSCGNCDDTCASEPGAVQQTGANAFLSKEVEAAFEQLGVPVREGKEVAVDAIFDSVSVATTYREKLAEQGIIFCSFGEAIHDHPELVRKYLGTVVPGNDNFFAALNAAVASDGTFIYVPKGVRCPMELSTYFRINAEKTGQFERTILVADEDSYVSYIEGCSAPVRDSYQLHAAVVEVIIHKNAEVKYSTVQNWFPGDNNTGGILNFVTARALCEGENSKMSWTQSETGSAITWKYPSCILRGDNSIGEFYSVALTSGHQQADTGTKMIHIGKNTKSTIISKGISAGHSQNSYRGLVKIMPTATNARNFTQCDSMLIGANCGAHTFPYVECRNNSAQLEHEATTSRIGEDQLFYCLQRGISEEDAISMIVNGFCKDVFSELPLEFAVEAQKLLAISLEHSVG

[2] = target: T2, SufB^W287A (Escherichia coli, UniProt P77522 1-495, SufB^W287A)
T2 construct: SufB of the Escherichia coli sufABCDSE operon; source: pBBR-sufAB carrying the mutation, in bacterial extract
T2 sequence: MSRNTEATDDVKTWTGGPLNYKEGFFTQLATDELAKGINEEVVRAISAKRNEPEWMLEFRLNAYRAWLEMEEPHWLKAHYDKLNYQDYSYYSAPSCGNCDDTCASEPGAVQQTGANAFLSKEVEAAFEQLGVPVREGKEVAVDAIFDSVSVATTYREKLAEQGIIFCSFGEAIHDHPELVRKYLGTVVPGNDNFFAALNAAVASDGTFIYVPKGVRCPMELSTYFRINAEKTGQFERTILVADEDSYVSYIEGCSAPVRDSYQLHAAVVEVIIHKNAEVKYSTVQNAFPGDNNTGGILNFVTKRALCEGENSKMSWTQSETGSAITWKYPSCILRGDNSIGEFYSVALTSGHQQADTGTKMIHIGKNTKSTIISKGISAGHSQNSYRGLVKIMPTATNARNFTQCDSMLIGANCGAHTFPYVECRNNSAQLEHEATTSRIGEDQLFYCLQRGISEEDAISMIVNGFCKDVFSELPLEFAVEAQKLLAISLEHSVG

[3] = target: T3, SufB^E434A (Escherichia coli, UniProt P77522 1-495, SufB^E434A)
T3 construct: SufB of the Escherichia coli sufABCDSE operon
T3 sequence: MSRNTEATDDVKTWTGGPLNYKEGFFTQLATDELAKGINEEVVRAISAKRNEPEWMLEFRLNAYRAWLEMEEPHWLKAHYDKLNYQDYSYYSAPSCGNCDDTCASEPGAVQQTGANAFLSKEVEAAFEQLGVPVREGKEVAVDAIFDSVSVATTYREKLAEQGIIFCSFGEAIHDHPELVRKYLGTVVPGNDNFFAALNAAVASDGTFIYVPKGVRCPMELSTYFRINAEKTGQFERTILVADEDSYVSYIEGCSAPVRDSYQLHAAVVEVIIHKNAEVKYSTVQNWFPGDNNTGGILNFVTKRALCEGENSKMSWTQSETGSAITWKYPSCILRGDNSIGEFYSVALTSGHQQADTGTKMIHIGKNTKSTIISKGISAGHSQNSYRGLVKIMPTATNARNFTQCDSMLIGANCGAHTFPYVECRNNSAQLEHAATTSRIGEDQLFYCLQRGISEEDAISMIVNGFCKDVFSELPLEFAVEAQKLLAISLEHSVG

[4] = target: T4, SufB^Q285A (Escherichia coli, UniProt P77522 1-495, SufB^Q285A)
T4 construct: SufB of the Escherichia coli sufABCDSE operon; source: pBBR-sufAB carrying the mutation, in bacterial extract
T4 sequence: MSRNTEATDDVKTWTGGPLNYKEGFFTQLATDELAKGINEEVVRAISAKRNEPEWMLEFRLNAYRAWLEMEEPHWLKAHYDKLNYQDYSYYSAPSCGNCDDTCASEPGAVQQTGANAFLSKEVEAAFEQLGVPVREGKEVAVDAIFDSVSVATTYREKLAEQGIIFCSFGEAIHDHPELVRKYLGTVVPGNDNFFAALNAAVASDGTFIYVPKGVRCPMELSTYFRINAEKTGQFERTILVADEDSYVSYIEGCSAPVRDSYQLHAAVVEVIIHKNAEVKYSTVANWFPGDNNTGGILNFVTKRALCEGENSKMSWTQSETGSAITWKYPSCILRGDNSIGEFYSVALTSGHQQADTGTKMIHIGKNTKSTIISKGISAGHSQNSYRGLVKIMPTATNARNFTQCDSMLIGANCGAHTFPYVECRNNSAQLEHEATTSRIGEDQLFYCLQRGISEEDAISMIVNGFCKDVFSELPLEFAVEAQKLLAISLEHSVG

Measured: binding result

B1: SufC (natural protein, Escherichia coli)
chain: MLSIKDLHVSVEDKAILRGLSLDVHPGEVHAIMGPNGSGKSTLSATLAGREDYEVTGGTVEFKGKDLLALSPEDRAGEGIFMAFQYPVEIPGVSNQFFLQTALNAVRSYRGQETLDRFDFQDLMEEKIALLKMPEDLLTRSVNVGFSGGEKKRNDILQMAVLEPELCILDESDSGLDIDALKVVADGVNSLRDGKRSFIIVTHYQRILDYIKPDYVHVLYQGRIVKSGDFTLVKQLEEQGYGWLTEQQ
notes: SufC of the Escherichia coli sufABCDSE operon; also called SufC subunit of the SufBCD complex
binds: all assays above

B2: SufD (natural protein, Escherichia coli)
chain: MAGLPNSSNALQQWHHLFEAEGTKRSPQAQQHLQQLLRTGLPTRKHENWKYTPLEGLINSQFVSIAGEISPQQRDALALTLDSVRLVFVDGRYVPALSDATEGSGYEVSINDDRQGLPDAIQAEVFLHLTESLAQSVTHIAVKRGQRPAKPLLLMHITQGVAGEEVNTAHYRHHLDLAEGAEATVIEHFVSLNDARHFTGARFTINVAANAHLQHIKLAFENPLSHHFAHNDLLLAEDATAFSHSFLLGGAVLRHNTSTQLNGENSTLRINSLAMPVKNEVCDTRTWLEHNKGFCNSRQLHKTIVSDKGRAVFNGLINVAQHAIKTDGQMTNNNLLMGKLAEVDTKPQLEIYADDVKCSHGATVGRIDDEQIFYLRSRGINQQDAQQMIIYAFAAELTEALRDEGLKQQVLARIGQRLPGGAR
notes: SufD of the Escherichia coli sufABCDSE operon; One SufD per SufBCD complex (1:2:1); also called SufD subunit of the SufBCD complex
binds: all assays above
